The labels stand for the following.
B1: ZNF263 (parent)
chain: RTHTGEKPYKCTLCGENFSHRSNL
B2: TBX5 (parent)
chain: YQNHKITQLKIENNPFAKGFRGSD
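Also: lentivirally expressed fusions sorted by FACS into six bins by GFP to DsRed ratio, PSI derived from sequencing read proportions per bin multiplied by bin number.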

The variants in the first data set derive from B1. Briefly: protein stability index of a GFP-peptide fusion (GPS, HEK-293T) (PSI 1-6); higher = more stable. Particulars: c terminus: a fixed tail appended.
As to RTHTGEKPYKCTLCGENFSHRSNY [L24Y], the protein stability index came to 1.78. For RTHTGEKPYKCTLCGENFSHRSNT [L24T], the protein stability index is 2.4. Consider RTHTGEKPYKCTLCGENFSHRSNE [L24E], for which the protein stability index was determined as 2.43.

As to RTHTGEKPYKCTLCGENFSHRSNH [L24H], the protein stability index is 2.42. RTHTGEKPYKCTLCGENFSHRSNM [L24M]: the protein stability index is 1.91. Consider RTHTGEKPYKCTLCGENFSHRSNA [L24A], for which the protein stability index is 2.3.

On to RTHTGEKPYKCTLCGENFSHRSNR [L24R], for which the protein stability index was found to be 1.95. In the case of RTHTGEKPYKCTLCGENFSHRSNC [L24C], the protein stability index is 4. The same measure, in the same setting: as for RTHTGEKPYKCTLCGENFSHRSND [L24D], the figure is 2.39. For RTHTGEKPYKCTLCGENFSHRSNF [L24F], the protein stability index came to 1.59. With RTHTGEKPYKCTLCGENFSHRSNS [L24S], the protein stability index stood at 2.52.

As for RTHTGEKPYKCTLCGENFSHRSNQ [L24Q], the protein stability index turned out to be 2.33. With RTHTGEKPYKCTLCGENFSHRSNI [L24I], the protein stability index came to 2.15. As to RTHTGEKPYKCTLCGENFSHRSNP [L24P], the protein stability index stood at 2.33. The same measure, in the same setting: as for RTHTGEKPYKCTLCGENFSHRSNW [L24W], the figure is 1.82. With RTHTGEKPYKCTLCGENFSHRSNK [L24K], the protein stability index worked out at 2.63. On the same count and under the same terms, as for RTHTGEKPYKCTLCGENFSHRSNN [L24N], the figure is 2.37.

As to RTHTGEKPYKCTLCGENFSHRSNV [L24V], the protein stability index was 2.49. For RTHTGEKPYKCTLCGENFSHRSNG [L24G], the protein stability index is 2.82. In the case of RTHTGEKPYKCTLCGENFSHRSYL [N23Y], the protein stability index turned out to be 1.96. Consider RTHTGEKPYKCTLCGENFSHRSTL [N23T], for which the protein stability index came to 1.94. As for RTHTGEKPYKCTLCGENFSHRSSL [N23S], the protein stability index came out at 2.05. For RTHTGEKPYKCTLCGENFSHRSVL [N23V], the protein stability index was found to be 1.94.

Consider RTHTGEKPYKCTLCGENFSHRSPL [N23P], for which the protein stability index came to 2.6. With RTHTGEKPYKCTLCGENFSHRSWL [N23W], the protein stability index was found to be 2.55. Turning to RTHTGEKPYKCTLCGENFSHRSRL [N23R], the protein stability index was 2.17. The same measure, in the same setting: to RTHTGEKPYKCTLCGENFSHRSQL [N23Q] belongs 1.91.

Variants of B2 are the subject of another data set. The data set is described as above. The following applies: c terminus: a fixed tail appended.
Regarding RQNHKITQLKIENNPFAKGFRGSD [Y1R], the protein stability index was determined as 3.61. Turning to WQNHKITQLKIENNPFAKGFRGSD [Y1W], the protein stability index came to 2.92. With FQNHKITQLKIENNPFAKGFRGSD [Y1F], the protein stability index came out at 2.48.

For the variant VQNHKITQLKIENNPFAKGFRGSD [Y1V], the protein stability index is 3.22. Consider MQNHKITQLKIENNPFAKGFRGSD [Y1M], for which the protein stability index came to 3.79.

As for TQNHKITQLKIENNPFAKGFRGSD [Y1T], the protein stability index stood at 3.65.

For the variant SQNHKITQLKIENNPFAKGFRGSD [Y1S], the protein stability index came out at 2.82.

For KQNHKITQLKIENNPFAKGFRGSD [Y1K], the protein stability index was 3.91. The same measure, in the same setting: to QQNHKITQLKIENNPFAKGFRGSD [Y1Q] belongs 3.68; to PQNHKITQLKIENNPFAKGFRGSD [Y1P], 3.52; to DQNHKITQLKIENNPFAKGFRGSD [Y1D], 3.46. Still for that read-out and setting: as for LQNHKITQLKIENNPFAKGFRGSD [Y1L], the figure is 3.42; as for HQNHKITQLKIENNPFAKGFRGSD [Y1H], 3.79. For IQNHKITQLKIENNPFAKGFRGSD [Y1I], the protein stability index was determined as 3.32. Still for that read-out and setting: to EQNHKITQLKIENNPFAKGFRGSD [Y1E] belongs 3.58. On the same count and under the same terms, to NQNHKITQLKIENNPFAKGFRGSD [Y1N] belongs 3.35; to GQNHKITQLKIENNPFAKGFRGSD [Y1G], 3.64; to AQNHKITQLKIENNPFAKGFRGSD [Y1A], 3.46.

CQNHKITQLKIENNPFAKGFRGSD [Y1C]: the protein stability index amounted to 3.19.

As for YINHKITQLKIENNPFAKGFRGSD [Q2I], the protein stability index is 2.19. In the case of YCNHKITQLKIENNPFAKGFRGSD [Q2C], the protein stability index turned out to be 2.54.

As to YTNHKITQLKIENNPFAKGFRGSD [Q2T], the protein stability index stood at 2.4.

Consider YVNHKITQLKIENNPFAKGFRGSD [Q2V], for which the protein stability index was determined as 2.39. Still for that read-out and setting: to YLNHKITQLKIENNPFAKGFRGSD [Q2L] belongs 2.84; to YRNHKITQLKIENNPFAKGFRGSD [Q2R], 2.61. Turning to YFNHKITQLKIENNPFAKGFRGSD [Q2F], the protein stability index was 2.75. Still for that read-out and setting: to YENHKITQLKIENNPFAKGFRGSD [Q2E] belongs 3.14. As for YNNHKITQLKIENNPFAKGFRGSD [Q2N], the protein stability index stood at 3.48. Consider YWNHKITQLKIENNPFAKGFRGSD [Q2W], for which the protein stability index turned out to be 2.04. Same read-out and setting: to YPNHKITQLKIENNPFAKGFRGSD [Q2P] belongs 2.63; to YANHKITQLKIENNPFAKGFRGSD [Q2A], 1.84. The same measure, in the same setting: to YMNHKITQLKIENNPFAKGFRGSD [Q2M] belongs 2.61; to YHNHKITQLKIENNPFAKGFRGSD [Q2H], 1.46; to YSNHKITQLKIENNPFAKGFRGSD [Q2S], 3.26. Turning to YKNHKITQLKIENNPFAKGFRGSD [Q2K], the protein stability index was 2.85. Still for that read-out and setting: as for YYNHKITQLKIENNPFAKGFRGSD [Q2Y], the figure is 2.92; as for YGNHKITQLKIENNPFAKGFRGSD [Q2G], 2.54; as for YDNHKITQLKIENNPFAKGFRGSD [Q2D], 4.02. As to YQNEKITQLKIENNPFAKGFRGSD [H4E], the protein stability index turned out to be 3.19. Same read-out and setting: as for YQNFKITQLKIENNPFAKGFRGSD [H4F], the figure is 1.89; as for YQNGKITQLKIENNPFAKGFRGSD [H4G], 2.57; as for YQNIKITQLKIENNPFAKGFRGSD [H4I], 2.11. Regarding YQNMKITQLKIENNPFAKGFRGSD [H4M], the protein stability index was 2.49. Consider YQNLKITQLKIENNPFAKGFRGSD [H4L], for which the protein stability index was 3.06.

YQNCKITQLKIENNPFAKGFRGSD [H4C]: the protein stability index came to 1.67. The same measure, in the same setting: as for YQNAKITQLKIENNPFAKGFRGSD [H4A], the figure is 2.52. Same read-out and setting: to YQNKKITQLKIENNPFAKGFRGSD [H4K] belongs 2.4. The same measure, in the same setting: as for YQNDKITQLKIENNPFAKGFRGSD [H4D], the figure is 3.52. Take YQWHKITQLKIENNPFAKGFRGSD [N3W]: the protein stability index was determined as 1.89. Consider YQKHKITQLKIENNPFAKGFRGSD [N3K], for which the protein stability index amounted to 2.64. With YQGHKITQLKIENNPFAKGFRGSD [N3G], the protein stability index was found to be 2.26.

On to YQCHKITQLKIENNPFAKGFRGSD [N3C], for which the protein stability index came to 1.75.

For YQEHKITQLKIENNPFAKGFRGSD [N3E], the protein stability index amounted to 3.33. Turning to YQMHKITQLKIENNPFAKGFRGSD [N3M], the protein stability index worked out at 2.16. In the case of YQIHKITQLKIENNPFAKGFRGSD [N3I], the protein stability index came to 1.97.

On to YQPHKITQLKIENNPFAKGFRGSD [N3P], for which the protein stability index was 2.57. The same measure, in the same setting: as for YQTHKITQLKIENNPFAKGFRGSD [N3T], the figure is 2.42; as for YQDHKITQLKIENNPFAKGFRGSD [N3D], 2.71; as for YQLHKITQLKIENNPFAKGFRGSD [N3L], 2.07.

As to YQAHKITQLKIENNPFAKGFRGSD [N3A], the protein stability index worked out at 1.94. Still for that read-out and setting: to YQYHKITQLKIENNPFAKGFRGSD [N3Y] belongs 1.99; to YQQHKITQLKIENNPFAKGFRGSD [N3Q], 2.93.

Consider YQRHKITQLKIENNPFAKGFRGSD [N3R], for which the protein stability index came to 2.44. On the same count and under the same terms, as for YQSHKITQLKIENNPFAKGFRGSD [N3S], the figure is 2.3.

As to YQFHKITQLKIENNPFAKGFRGSD [N3F], the protein stability index came to 2.23. Regarding YQHHKITQLKIENNPFAKGFRGSD [N3H], the protein stability index worked out at 2.29.

For YQVHKITQLKIENNPFAKGFRGSD [N3V], the protein stability index amounted to 2.39.

The values are drawn from the supplement of paper PMC10567573.
